According to publication PMC5567573, “Identification, heterologous expression and characterization of a dye-decolorizing peroxidase of Pleurotus sapidus” (AMB Express, 2017):

How the values were obtained:
Assay in all cases: purified protein
purified protein [1] = substrate: COc1ccccc1O; settings: H2O2 62.5 µM, pH 4.5, 50 mM sodium acetate, 30 °C, 4.5 nM enzyme
purified protein [2] = substrate: CCn1c(=NN=c2sc3cc(S(=O)(=O)O)ccc3n2CC)sc2cc(S(=O)(=O)O)ccc21; format: biochemical, Pleurotus sapidus; settings: H2O2 125 µM, pH 3.8, 100 mM sodium acetate, 30 °C, 0.27 nM enzyme
purified protein [3] = substrate: COc1cccc(OC)c1O; format: biochemical, Pleurotus sapidus; settings: H2O2 62.5 µM, pH 4.5, 50 mM sodium acetate, 30 °C, 1.8 nM enzyme

B1: rPsaDyP (recombinant DyP-type peroxidase of Pleurotus sapidus) (Pleurotus sapidus) (protein)
chain: ATNGTFLPLEEIQGDIMIGMRKPKEIFFFYSLQNPRKFKSVLAKLIYPHITTTAQMVCTTCAQPSAMLNVAWTSQGLRKLGVLDNLGDPYFAMGQLSDAAALGDTDPSTTWAPGLYANKTDGAFLIAAKDWEPIDTLLNQMKAWLGDAIVETHSNRGAVRPGDAAGKEHFGWLDGFIQPAVAGFATSTYPGQQLLLPGTLLTKEIGDPRRAARPAWTKWGSFMAYRQLQELVPEFDDYLMQEAALIQDSSRSVRERADLLGARMFGRWKSGTPLDLAPEKDDPSIGPNLMLNNNFDFNHPAPFNINTNQSYCPFSAHIRKIRPRADQGNQNLKNQMIRASIPYGEELSDDEINNKKTGTERGVAFVTYQSDLGSGFHFQQAEWANNVNIPTGKSDPTPGFDPIVGQNSGKPLVVSGIDYTDLNHDLTFMSFVVSKGGDYFFSPSMSAILHKIAA
Purified protein [1]
  Km: 713 µM
  Vmax: 21 µM/min
  kcat: 74 s⁻¹
  kcat/Km: 100000 M⁻¹ s⁻¹
Purified protein [2]
  Km: 99 µM
  Vmax: 6 µM/min
  kcat: 375 s⁻¹
  kcat/Km: 3.8e+06 M⁻¹ s⁻¹
Purified protein [3]
  Km: 1227 µM
  Vmax: 6.6 µM/min
  kcat: 60 s⁻¹
  kcat/Km: 49000 M⁻¹ s⁻¹
